Reference: publication PMC11626777

What was measured:
[1] = western blot of HDAC5 protein, mBMSCs; settings: glycan lost; control: DMSO
[2] = HDAC5 protein level in bone tissue; settings: glycan lost; control: Ogtfl/fl mice

Protein | expression_or_secretion [1] | expression_or_secretion [2]
HDAC5: OSMI-1 (protein) parent chain: MNSPNESDGMSGREPSLGILPRTPLHSIPVAVEVKPVLPGAMPSSMGGGGGGSPSPVELRGALAGPMDPALREQQLQQELLVLKQQQQLQKQLLFAEFQKQHDHLTRQHEVQLQKHLKQQQEMLAAKRQQELEQQRQREQQRQEELEKQRLEQQLLILRNKEKSKESAIASTEVKLRLQEFLLSKSKEPTPGGLNHSLPQHPKCWGAHHASLDQSSPPQSGPPGTPPSYKLPLLGPYDSRDDFPLRKTASEPNLKVRSRLKQKVAERRSSPLLRRKDGTVISTFKKRAVEITGTGPGVSSVCNSAPGSGPSSPNSSHSTIAENGFTGSVPNIPTEMIPQHRALPLDSSPNQFSLYTSPSLPNISLGLQATVTVTNSHLTASPKLSTQQEAERQALQSLRQGGTLTGKFMSTSSIPGCLLGVALEGDTSPHGHASLLQHVCSWTGRQQSTLIAVPLHGQSPLVTGERVATSMRTVGKLPRHRPLSRTQSSPLPQSPQALQQLVMQQQHQQFLEKQKQQQMQLGKILTKTGELSRQPTTHPEETEEELTEQQEALLGEGALTIPREGSTESESTQEDLEEEEEEEEEEEEDCIQVKDEDGESGPDEGPDLEESSAGYKKLFADAQQLQPLQVYQAPLSLATVPHQALGRTQSSPAAPGSMKSPTDQPTVVKHLFTTGVVYDTFMLKHQCMCGNTHVHPEHAGRIQSIWSRLQETGLLGKCERIRGRKATLDEIQTVHSEYHTLLYGTSPLNRQKLDSKKLLGPISQKMYAMLPCGGIGVDSDTVWNEMHSSSAVRMAVGCLVELAFKVAAGELKNGFAIIRPPGHHAEESTAMGFCFFNSVAITAKLLQQKLSVGKVLIVDWDIHHGNGTQQAFYNDPSVLYISLHRYDNGNFFPGSGAPEEVGGGPGVGYNVNVAWTGGVDPPIGDVEYLTAFRTVVMPIAQEFSPDVVLVSAGFDAVEGHLSPLGGYSVTARCFGHLTRQLMTLAGGRVVLALEGGHDLTAICDASEACVSALLSVELQPLDEAVLQQKPSVNAVATLEKVIEIQSKHWSCVQRFAAGLGCSLREAQTGEKEEAETVSAMALLSVGAEQAQAVATQEHSPRPAEEPMEQEPAL | increases | –
HDAC5: Ogtfl/fl; Bglap-Cre (Ogt cKO) (protein) parent chain: MNSPNESDGMSGREPSLGILPRTPLHSIPVAVEVKPVLPGAMPSSMGGGGGGSPSPVELRGALAGPMDPALREQQLQQELLVLKQQQQLQKQLLFAEFQKQHDHLTRQHEVQLQKHLKQQQEMLAAKRQQELEQQRQREQQRQEELEKQRLEQQLLILRNKEKSKESAIASTEVKLRLQEFLLSKSKEPTPGGLNHSLPQHPKCWGAHHASLDQSSPPQSGPPGTPPSYKLPLLGPYDSRDDFPLRKTASEPNLKVRSRLKQKVAERRSSPLLRRKDGTVISTFKKRAVEITGTGPGVSSVCNSAPGSGPSSPNSSHSTIAENGFTGSVPNIPTEMIPQHRALPLDSSPNQFSLYTSPSLPNISLGLQATVTVTNSHLTASPKLSTQQEAERQALQSLRQGGTLTGKFMSTSSIPGCLLGVALEGDTSPHGHASLLQHVCSWTGRQQSTLIAVPLHGQSPLVTGERVATSMRTVGKLPRHRPLSRTQSSPLPQSPQALQQLVMQQQHQQFLEKQKQQQMQLGKILTKTGELSRQPTTHPEETEEELTEQQEALLGEGALTIPREGSTESESTQEDLEEEEEEEEEEEEDCIQVKDEDGESGPDEGPDLEESSAGYKKLFADAQQLQPLQVYQAPLSLATVPHQALGRTQSSPAAPGSMKSPTDQPTVVKHLFTTGVVYDTFMLKHQCMCGNTHVHPEHAGRIQSIWSRLQETGLLGKCERIRGRKATLDEIQTVHSEYHTLLYGTSPLNRQKLDSKKLLGPISQKMYAMLPCGGIGVDSDTVWNEMHSSSAVRMAVGCLVELAFKVAAGELKNGFAIIRPPGHHAEESTAMGFCFFNSVAITAKLLQQKLSVGKVLIVDWDIHHGNGTQQAFYNDPSVLYISLHRYDNGNFFPGSGAPEEVGGGPGVGYNVNVAWTGGVDPPIGDVEYLTAFRTVVMPIAQEFSPDVVLVSAGFDAVEGHLSPLGGYSVTARCFGHLTRQLMTLAGGRVVLALEGGHDLTAICDASEACVSALLSVELQPLDEAVLQQKPSVNAVATLEKVIEIQSKHWSCVQRFAAGLGCSLREAQTGEKEEAETVSAMALLSVGAEQAQAVATQEHSPRPAEEPMEQEPAL | – | increases
